Measured values as given in US20190134153A1, “IMMUNOMODULATORY EFFECT OF INHALED KINASE INHIBITOR PEPTIDES IN LUNG” (MOERAE MATRIX, INC., priority 2017, published 2019).

Columns and labels:
Assay in all cases: Kinase Profiling Assay
Format in all cases: biochemical
Details in all cases: 100 μM
BRK(h) = BRK(h) (Homo sapiens, UniProt Q13882)
CDK5/p25(h) = CDK5/p25(h) (Homo sapiens, UniProt Q00535)
cKit(h) = cKit(h) (Homo sapiens, UniProt P10721)
CSK(h) = CSK(h) (Homo sapiens, UniProt P41240)
EGFR(T790M, L858R)(h) = EGFR(T790M, L858R)(h) (Homo sapiens, UniProt P00533, L858R/T790M)
EphA3(h) = molecular target: T1, EphA3(h) (Homo sapiens, UniProt P29320)
T1 sequence (P29320 21-983): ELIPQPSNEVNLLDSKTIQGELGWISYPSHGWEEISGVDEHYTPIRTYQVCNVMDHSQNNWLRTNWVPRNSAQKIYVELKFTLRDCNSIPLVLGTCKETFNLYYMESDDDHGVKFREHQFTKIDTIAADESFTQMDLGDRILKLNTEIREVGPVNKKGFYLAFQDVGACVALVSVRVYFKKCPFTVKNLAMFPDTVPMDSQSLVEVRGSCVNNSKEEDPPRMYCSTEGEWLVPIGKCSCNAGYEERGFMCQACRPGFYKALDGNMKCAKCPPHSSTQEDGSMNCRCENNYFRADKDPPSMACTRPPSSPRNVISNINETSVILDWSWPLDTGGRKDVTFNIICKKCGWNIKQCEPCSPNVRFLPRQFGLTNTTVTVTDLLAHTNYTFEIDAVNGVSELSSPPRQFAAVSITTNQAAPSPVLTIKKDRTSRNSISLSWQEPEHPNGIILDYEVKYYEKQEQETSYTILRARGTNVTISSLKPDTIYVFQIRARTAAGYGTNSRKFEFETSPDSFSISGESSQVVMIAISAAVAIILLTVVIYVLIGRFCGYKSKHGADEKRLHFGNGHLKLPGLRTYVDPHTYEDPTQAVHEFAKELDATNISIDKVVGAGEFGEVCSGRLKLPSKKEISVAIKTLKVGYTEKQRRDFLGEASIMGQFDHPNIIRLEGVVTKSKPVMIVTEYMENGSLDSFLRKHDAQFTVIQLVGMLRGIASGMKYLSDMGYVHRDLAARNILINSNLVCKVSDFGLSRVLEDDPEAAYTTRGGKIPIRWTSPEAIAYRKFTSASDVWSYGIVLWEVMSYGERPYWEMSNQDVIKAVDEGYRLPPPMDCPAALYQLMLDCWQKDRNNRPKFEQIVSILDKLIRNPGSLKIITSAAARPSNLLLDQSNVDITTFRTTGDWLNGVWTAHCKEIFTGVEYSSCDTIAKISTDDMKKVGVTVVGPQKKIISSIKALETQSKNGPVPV

EphA7(h) = EphA7(h) (Homo sapiens, UniProt Q15375)
mTOR/FKBP12(h) = mTOR/FKBP12(h) (Homo sapiens, UniProt P42345)
Chain of mTOR/FKBP12(h) (P42345 1362-2549 limits assumed): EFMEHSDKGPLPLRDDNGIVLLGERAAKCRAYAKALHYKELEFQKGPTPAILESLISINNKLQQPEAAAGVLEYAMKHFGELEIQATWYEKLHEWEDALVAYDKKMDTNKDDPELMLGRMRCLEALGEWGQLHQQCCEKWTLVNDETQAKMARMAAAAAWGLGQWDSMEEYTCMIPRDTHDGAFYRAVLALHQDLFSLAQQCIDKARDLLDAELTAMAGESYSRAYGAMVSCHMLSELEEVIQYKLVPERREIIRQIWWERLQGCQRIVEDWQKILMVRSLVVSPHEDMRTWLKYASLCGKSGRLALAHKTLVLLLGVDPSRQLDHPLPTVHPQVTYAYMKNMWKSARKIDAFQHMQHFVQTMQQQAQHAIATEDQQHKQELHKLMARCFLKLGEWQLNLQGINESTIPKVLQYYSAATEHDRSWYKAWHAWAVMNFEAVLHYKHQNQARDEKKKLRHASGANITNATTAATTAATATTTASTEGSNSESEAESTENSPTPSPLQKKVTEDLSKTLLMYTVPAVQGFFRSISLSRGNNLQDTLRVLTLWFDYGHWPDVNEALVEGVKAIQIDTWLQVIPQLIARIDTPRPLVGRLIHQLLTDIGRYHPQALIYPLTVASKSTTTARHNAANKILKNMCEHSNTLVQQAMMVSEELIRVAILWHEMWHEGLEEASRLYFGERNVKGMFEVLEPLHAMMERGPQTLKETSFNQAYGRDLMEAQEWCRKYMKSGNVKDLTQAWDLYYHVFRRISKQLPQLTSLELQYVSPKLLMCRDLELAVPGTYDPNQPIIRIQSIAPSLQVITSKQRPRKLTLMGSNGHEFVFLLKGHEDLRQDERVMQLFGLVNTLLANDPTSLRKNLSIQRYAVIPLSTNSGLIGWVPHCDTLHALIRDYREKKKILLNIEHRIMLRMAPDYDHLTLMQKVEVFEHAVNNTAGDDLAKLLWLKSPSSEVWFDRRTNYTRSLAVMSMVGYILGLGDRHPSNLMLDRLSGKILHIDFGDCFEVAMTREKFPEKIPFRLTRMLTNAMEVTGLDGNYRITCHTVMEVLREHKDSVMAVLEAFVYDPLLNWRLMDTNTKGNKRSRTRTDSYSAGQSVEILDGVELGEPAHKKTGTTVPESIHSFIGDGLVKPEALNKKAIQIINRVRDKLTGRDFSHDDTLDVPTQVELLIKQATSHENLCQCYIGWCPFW

PAK4(h) = PAK4(h) (Homo sapiens, UniProt O96013)
Chain of PAK4(h) (O96013 whole entry): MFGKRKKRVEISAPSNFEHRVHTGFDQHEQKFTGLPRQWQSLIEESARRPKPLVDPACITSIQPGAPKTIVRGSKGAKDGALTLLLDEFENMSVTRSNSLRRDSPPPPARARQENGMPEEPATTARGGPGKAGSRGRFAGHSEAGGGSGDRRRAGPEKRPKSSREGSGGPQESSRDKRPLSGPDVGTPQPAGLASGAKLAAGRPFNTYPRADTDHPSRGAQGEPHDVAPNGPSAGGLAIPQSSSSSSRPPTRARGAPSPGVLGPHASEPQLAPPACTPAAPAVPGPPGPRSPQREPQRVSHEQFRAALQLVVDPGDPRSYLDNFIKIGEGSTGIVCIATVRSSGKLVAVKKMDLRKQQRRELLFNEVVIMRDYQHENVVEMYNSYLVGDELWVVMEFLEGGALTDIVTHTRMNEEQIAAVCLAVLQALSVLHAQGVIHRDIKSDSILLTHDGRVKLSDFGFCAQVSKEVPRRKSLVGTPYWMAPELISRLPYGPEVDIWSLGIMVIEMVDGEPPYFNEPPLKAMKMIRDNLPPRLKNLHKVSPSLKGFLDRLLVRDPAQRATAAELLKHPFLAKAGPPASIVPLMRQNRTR

PKCθ(h) = PKCθ(h) (Homo sapiens, UniProt Q04759)
PTK5(h) = PTK5(h) (Homo sapiens, UniProt P42685)
Chain of PTK5(h) (P42685 whole entry): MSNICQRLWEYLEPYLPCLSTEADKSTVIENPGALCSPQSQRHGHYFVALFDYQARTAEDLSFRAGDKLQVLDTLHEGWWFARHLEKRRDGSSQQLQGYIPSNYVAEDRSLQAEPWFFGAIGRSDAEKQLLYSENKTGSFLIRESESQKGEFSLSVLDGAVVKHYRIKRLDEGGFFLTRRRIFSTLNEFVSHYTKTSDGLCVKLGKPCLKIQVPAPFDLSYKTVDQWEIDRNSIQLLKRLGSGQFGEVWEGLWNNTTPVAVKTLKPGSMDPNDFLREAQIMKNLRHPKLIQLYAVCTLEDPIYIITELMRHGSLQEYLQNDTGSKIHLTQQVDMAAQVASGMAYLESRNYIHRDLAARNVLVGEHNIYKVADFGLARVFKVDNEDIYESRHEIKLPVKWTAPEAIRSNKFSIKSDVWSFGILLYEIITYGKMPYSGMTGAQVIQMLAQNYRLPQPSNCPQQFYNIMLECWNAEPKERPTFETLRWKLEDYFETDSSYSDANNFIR

BTK(h) = BTK(h) (Homo sapiens, UniProt Q06187)
Chain of BTK(h) (Q06187 whole entry): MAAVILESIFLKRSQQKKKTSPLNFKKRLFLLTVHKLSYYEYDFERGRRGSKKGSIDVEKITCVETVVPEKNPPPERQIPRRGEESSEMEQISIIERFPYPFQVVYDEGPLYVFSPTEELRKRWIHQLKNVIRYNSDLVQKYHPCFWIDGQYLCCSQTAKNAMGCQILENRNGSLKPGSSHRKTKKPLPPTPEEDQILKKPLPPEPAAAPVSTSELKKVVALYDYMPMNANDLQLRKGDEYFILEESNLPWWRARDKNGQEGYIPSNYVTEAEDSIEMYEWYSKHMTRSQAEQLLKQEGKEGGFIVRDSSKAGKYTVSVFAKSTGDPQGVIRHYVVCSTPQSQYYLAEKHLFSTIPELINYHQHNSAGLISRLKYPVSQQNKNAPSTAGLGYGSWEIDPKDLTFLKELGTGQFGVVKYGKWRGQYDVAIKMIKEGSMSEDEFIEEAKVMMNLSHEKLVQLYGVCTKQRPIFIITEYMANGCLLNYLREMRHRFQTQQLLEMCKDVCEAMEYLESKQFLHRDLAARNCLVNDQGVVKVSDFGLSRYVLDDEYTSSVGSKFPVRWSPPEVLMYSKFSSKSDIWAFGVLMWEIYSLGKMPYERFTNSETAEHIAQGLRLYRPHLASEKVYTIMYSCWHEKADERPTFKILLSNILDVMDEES

FAK(h) = FAK(h) (Homo sapiens, UniProt Q05397)
Chain of FAK(h) (Q05397 whole entry): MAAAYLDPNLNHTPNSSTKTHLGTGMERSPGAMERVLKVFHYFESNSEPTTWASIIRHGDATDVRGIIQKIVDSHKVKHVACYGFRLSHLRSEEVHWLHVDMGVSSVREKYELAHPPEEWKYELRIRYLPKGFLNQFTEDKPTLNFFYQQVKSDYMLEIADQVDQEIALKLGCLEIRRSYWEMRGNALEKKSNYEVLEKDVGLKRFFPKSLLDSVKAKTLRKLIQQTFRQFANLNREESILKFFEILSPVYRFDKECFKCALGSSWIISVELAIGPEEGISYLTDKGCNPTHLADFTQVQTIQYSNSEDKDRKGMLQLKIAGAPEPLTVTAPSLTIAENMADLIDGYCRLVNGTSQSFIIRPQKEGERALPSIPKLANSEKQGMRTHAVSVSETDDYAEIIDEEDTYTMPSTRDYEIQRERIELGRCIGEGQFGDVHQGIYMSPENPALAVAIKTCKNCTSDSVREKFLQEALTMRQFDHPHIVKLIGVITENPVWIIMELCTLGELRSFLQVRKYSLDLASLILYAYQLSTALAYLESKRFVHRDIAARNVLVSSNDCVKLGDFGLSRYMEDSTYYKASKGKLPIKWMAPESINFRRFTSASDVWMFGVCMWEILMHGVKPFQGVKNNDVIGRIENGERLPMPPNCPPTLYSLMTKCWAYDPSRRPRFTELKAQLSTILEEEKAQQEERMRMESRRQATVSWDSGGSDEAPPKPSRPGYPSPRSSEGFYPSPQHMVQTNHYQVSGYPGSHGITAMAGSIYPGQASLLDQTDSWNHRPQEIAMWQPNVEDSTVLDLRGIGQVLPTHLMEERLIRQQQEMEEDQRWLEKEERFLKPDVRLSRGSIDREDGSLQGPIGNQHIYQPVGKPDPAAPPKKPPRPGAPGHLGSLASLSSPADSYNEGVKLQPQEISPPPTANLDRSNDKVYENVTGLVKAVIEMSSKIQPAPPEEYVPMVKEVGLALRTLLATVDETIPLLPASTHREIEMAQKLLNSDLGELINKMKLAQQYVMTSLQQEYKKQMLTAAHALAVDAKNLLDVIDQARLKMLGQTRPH

Chain of CDK5/p25(h) (Q00535 whole entry): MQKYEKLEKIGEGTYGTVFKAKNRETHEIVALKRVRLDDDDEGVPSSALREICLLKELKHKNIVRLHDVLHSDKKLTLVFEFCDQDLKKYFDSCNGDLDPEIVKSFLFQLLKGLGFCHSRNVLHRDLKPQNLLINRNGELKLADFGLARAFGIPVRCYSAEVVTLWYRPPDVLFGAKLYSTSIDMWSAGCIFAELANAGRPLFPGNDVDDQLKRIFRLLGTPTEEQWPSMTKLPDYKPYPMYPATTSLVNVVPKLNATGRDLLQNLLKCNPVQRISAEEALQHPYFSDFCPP
Chain of CDK5/p25(h) (Q15078 99-307 partner limits assumed): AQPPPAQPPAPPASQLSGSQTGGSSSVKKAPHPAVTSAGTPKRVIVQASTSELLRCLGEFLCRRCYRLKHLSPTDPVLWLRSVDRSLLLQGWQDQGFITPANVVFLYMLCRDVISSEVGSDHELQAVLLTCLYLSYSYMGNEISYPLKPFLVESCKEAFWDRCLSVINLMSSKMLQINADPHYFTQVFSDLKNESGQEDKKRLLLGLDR
Chain of BRK(h) (Q13882 whole entry): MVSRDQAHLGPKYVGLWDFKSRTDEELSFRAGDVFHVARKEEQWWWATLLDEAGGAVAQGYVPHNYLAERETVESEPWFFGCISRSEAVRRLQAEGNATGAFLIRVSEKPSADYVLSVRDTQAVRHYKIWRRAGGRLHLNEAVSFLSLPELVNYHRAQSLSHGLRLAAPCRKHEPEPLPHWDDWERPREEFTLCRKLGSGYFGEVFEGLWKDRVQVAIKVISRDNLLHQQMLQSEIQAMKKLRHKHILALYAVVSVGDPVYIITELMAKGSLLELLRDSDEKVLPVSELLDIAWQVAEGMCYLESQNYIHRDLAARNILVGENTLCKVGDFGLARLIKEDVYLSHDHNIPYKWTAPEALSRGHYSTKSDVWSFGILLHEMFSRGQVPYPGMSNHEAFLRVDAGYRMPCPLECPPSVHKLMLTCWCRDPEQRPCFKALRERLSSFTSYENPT

Row | Sequence | % activity (BRK(h)) [%] | % activity (CDK5/p25(h)) [%] | % activity (cKit(h)) [%] | % activity (CSK(h)) [%] | % activity (EGFR(T790M, L858R)(h)) [%] | % activity (EphA3(h)) [%] | % activity (EphA7(h)) [%] | % activity (mTOR/FKBP12(h)) [%] | % activity (PAK4(h)) [%] | % activity (PKCθ(h)) [%] | % activity (PTK5(h)) [%] | % activity (BTK(h)) [%] | % activity (FAK(h)) [%]
1 | FAKLAARLYRKALARQLGVAA [MMI-0300] | 35 | 89 | 53 | 49 | 85 | 6 | 159 | 145 | 94 | 88 | 132 |  | 
2 | HRRIKAWLKKIKALARQLGVAA [MMI-0500] | 41 | 66 | 45 | 2 | 53 | 33 | 189 | 140 | 86 | 62 | 96 | 18 | 94
3 | KAFAKLAARLYRKALARQLGVAA [MMI-0400] | 18 | 92 | 43 | 16 | 78 | 12 | 222 | 125 | 89 | 76 | 129 | 94 | 96
4 | YARAAARQARAKALNRQLGVA [MMI-0200] | 127 | 97 | 110 | 33 | 108 |  | 220 | 118 | 98 | 101 | 108 | 100 | 110
